Like-named read-outs stand apart in the source and are kept apart here.
Columns and labels:
Op18-Δ5-9-F (human) [1] = test: pull-down
Op18-Δ5-9-F (human) [2] = test: pull-down; remark: listed apart in the source
[3] = target: tubulin as used by Curmi et al. 1997; test: plasmon resonance measurement; settings: pH 6.5; cited from earlier work

| Free [tubulin] at half saturation of Op18 (Op18-Δ5-9-F (human) [1]) | Kd1 (first tubulin heterodimer) (Op18-Δ5-9-F (human) [1]) | Kd2 (second tubulin heterodimer) (Op18-Δ5-9-F (human) [1]) | stoichiometry N (mol tubulin per mol) (Op18-Δ5-9-F (human) [1]) | Kd1 (first tubulin heterodimer) (Op18-Δ5-9-F (human) [2]) | Kd2 (second tubulin heterodimer) (Op18-Δ5-9-F (human) [2]) | Substance | Kd [3] |
| --- | --- | --- | --- | --- | --- | --- | --- |
| 7.1 µM | 74 µM | 0.98 µM | 2.1 | 6.5 µM | 0.91 µM | tubulin heterodimer (bovine tubulin) (from UniProt Q6B856 1-445) (complex) | – |
| – | – | – | – | – | – | stathmin/Op18 as used by Curmi et al. 1997 | 500 nM |

— PMC2156119
